For data set [1] the following is noted: substrate DTT, data from Hoober et al. 1999, cited from earlier work.
The conditions of data set [2]: substrate GSH, data from Hoober et al. 1999, cited from earlier work.
The subject of data set [3] is reduced RNase (rRNase). The conditions noted are these: substrate rRNase, data from Hoober et al. 1999, cited from earlier work.
A short description of data set [4]: Oxygen electrode assay, oxidation of dithiothreitol by QSOX1. It counts as biochemical. The conditions noted are these: substrate DTT, 25° C., 50 mM phosphate buffer, pH 7.5, 1 mM EDTA. As to the method: (§1) Oxygen electrode assays were performed in duplicate at 25° C. as described in K. L. Hoober, et al., J. Biol. Chem. 271: 30510-30516, 1996. Assays were initiated by the addition of 5 mM DTT or reduced glutathione (GSH). All thiol substrates were standardized with DTNB before use. Reduced RNase was prepared, characterized and stored as described in K. L. Hoober, et al., J. Biol. Chem. 271: 30510-30516, 1996. Assays of the oxidation of reduced RNase were performed as described by K. L. Hoober et al., J. Biol. Chem. 274: 22147-22150.

Data set [5] can be described thus: Oxygen electrode assay, oxidation of reduced glutathione by QSOX1. It counts as biochemical. The conditions noted are these: substrate GSH, 25° C., 50 mM phosphate buffer, pH 7.5, 1 mM EDTA. The method, then: as §1
Data set [6] deals with reduced RNase (rRNase). Put plainly: Oxidation of reduced RNase by QSOX1. Format: biochemical. As to the method: as §1
Data set [7] is described as follows: Stimulation of sulfhydryl oxidase activity by added ferrous iron. Format: biochemical. The conditions noted are these: purified QSOX1 from milk.
Data set [8] in a line: Inhibition of sulfhydryl oxidase activity by EDTA. It counts as biochemical. The conditions noted are these: purified QSOX1 from milk.

The values that follow come from patent US7625733B2, “Isolation of quiescin-sulfhydryl oxidase from milk” (University of Delaware, priority 2007, dated 2009).

Like-named read-outs stand apart in the source and are kept apart here.

B1: Egg QSOX1: Avian QSOX1 isolated from egg white; data from Hoober et al. 1999 (protein, UniProt Q8JGM4 43-743, looked up)
Sulfhydryl oxidase 1: RSLYSPSDPLELLGADTAERRLLGSPSAWAVEFFASWCGHCIHFAPTWRALAEDVREWRPAVMIAALDCADEANQQVCADFGITGFPTLKFFRAFSKKAEDGIRIAHPTATVADLRRAIITNLEQSGDAWPPACPPLEPASAEEVRSFFHRNTERYLALIFEQSNSFVGREVALDLLQYENVAVRRVLSSEEELVEKFGVTTFPSAYLLLRNGSFSRLPVHAEARSFYTYYLQTLSGVTRGSYRLNVTGSAINETRALQPAQADRSKVYVADLESTVHYTLRVEAGRPAVLAGAQLAALKCYVATLAKYFPGRPSVQTFLQSLDSWLRNWTEPELPRSALKEAVKNKEDASPAAVLPTNVTWVGCRGSEPHFRGYPCGLWTIFHLLTVQAAQGGPDEELPLEVLNTMRCYVKHFFGCQECAQHFEAMAAKSMDQVKSRREAVLWLWSHHNEVNARLAGGDTEDPQFPKLQWPPPDMCPQCHREERGVHTWDEAAVLSFLKEHFSLGNLYLDHAIPIPMAGEEAAASARLSTAGLREKEEEERKEEEEEGEKETEKPHREGETGRPGSSELRRPSIVRRNPRLRALGEDIVDLDSFSEQHFKSKALRAAGRHRRLSKRDTVALHHDAGWERLQVPESREEEEEGGVLRRSPWLRVLGLGFSRLDVSLCIALYFLSSMCLLGMYTFFRLRTRARKGRPGFPVA
For B1, the Michaelis constant (Km) (in general, the concentration of substrate that gives half-maximal velocity) is 150 µM in data set [1], 20 mM in data set [2] and 115 µM in data set [3]. The catalytic constant (kcat) (as a rule, the maximal rate divided by the concentration of active sites) in data set [1] (thiols oxidized per minute) is 2060 min⁻¹; in data set [2] (thiols oxidized per minute), 2780 min⁻¹; in data set [3] (thiols oxidized per minute), 1220 min⁻¹.

B2: Milk QSOX1: Flavin-dependent quiescin Q6 sulfhydryl oxidase 1 isolated and purified from bovine milk, amino acid sequence SEQ ID NO:1 (protein, listed as Bos taurus)
chain: SALYSSSDPLTLLRADTVRSTVLGSSSAWAVEFFASWCGHCIAFAPTWKALANDVKDWRPALNLAALDCAEETNSAVCRDFNIPGFPTVRFFKAFSKTGSGTTLSVAGADVQTLRERLIDALESHSDTWPPACPPLEPARLEEITGFFARNNEEYLALIFEKEGSYLGREVTLDLSQHQGIAVRRVLNTERDVVNRFGVTNFPSCYLLSRNGSFSRVPALTESRSFYTTYLRKFSGSTRGAVQTTAAPATTSAVAPTVWKVADRSKIYMADLESALHYILRIEVGKFSVLEGQRLVALKKFMAVLAKYFRGRPLVQNFLHSMNDWLKKQQRKKIPYGFFKNALDSRKEGTVIAEKVNWVGCQGSEPHFRGFPCSLWILFHFLTVQAAQEGVDHPQERAKAQEVLQAIRGYVRFFFGCRECAGHFEQMASGSMHRVGSLNSAVLWFWSSHNKVNARLAGAPSEDPQFPKVQWPPRELCSACHNELRGTPVWDLDNILKFLKTHFSPSNIVLDFPSAGPGPWR
On to B2, for which the Km in data set [4] is 86 µM; in data set [5] it was 4.9 mM; in data set [6] (substrate rRNase, 25° C., 50 mM phosphate buffer, pH 7.5, 1 mM EDTA), 60 µM. Besides, the kcat in data set [4] (thiols oxidized per minute) worked out at 1880 min⁻¹; in data set [5] (thiols oxidized per minute), 1760 min⁻¹; in data set [6] (substrate rRNase, 25° C., 50 mM phosphate buffer, pH 7.5, 1 mM EDTA, thiols oxidized per minute) it was 1340 min⁻¹. Besides, the “catalytic efficiency relative to egg white QSOX1” value in data set [6] (oxidation of reduced pancreatic RNase) is “two-fold higher”. For the same molecule, in data set [7], the “Is activity stimulated by added Ferrous iron?” value was “No”. In addition, the “Is EDTA inhibitory?” value in data set [8] is “No”.
